Broadly, the Km is the substrate concentration at which the rate is half of its maximum.

The text below walks through data of patent publication US6537803B1, “Amino acid transporters and uses” (Oregon Health Sciences University, priority 1993, dated 2003).

Conditions in all cases: other: L-stereoisomer; least squares fit of induced inward current vs substrate concentration; mean ± standard error, at least 5 determinations
Substrate in data set [1]: N[C@@H](CS)C(=O)O
The data set can be described thus: amino acid-induced inward current in voltage-clamped ASCT1-injected Xenopus oocytes. The format is cell-based, human.
Method: (§1) 20-50 nL of ASCT1 RNA (at a concentration of about 400 μg/mL) was injected into defolliculated stage V-VI Xenopus oocytes excised from female Xenopus laevis anesthetized by immersion in 3-aminobenzoic acid for 60 min. Excised oocytes were treated with collagenase II (Sigma Chemical Co., St. Louis, Mo.) in calcium-free Barth's saline solution [comprising 88 mM NaCl, 1 mM KCl, 2.4 mM NaHCO3, 0.82 mM MgSO4, 7.5 mM Tris-HCl (pH 7.6), 50 U/mL Nystatin (Sigma) and 0.1 mg/mL gentamycin (Sigma)] for 60 min., and then incubated overnight at 15° C. in 50% Leibowitz's L-15 media (Grand Island Biological Co. (GIBCO), Long Island, N.Y.). After overnight incubation the oocytes were mechanically defolliculated and then were injected with ASCT-1 RNA and incubated at 19° C. for 48 h (see Kim el al., 1991, Nature 352: 725-728 for further details of Xenopus oocyte preparation and microinjection).
(§2) Amino acid transport in such oocytes was assayed using [^3H] alanine, [^3H] serine or [^35S] cysteine (obtained from New England Nuclear, Boston, Mass.). Briefly, microinjected oocytes were patch-lamped at −60 mV using a Dagan TEV-200 clamp amplifier with an Axon Instruments (Foster City, Calif.) TL-1 A/D interface controlled by pCLAMP software (Axon Instruments) (see Kavanaugh et al., 1992, J. Biol. Chem. 267: 22007-22009 for a detailed review of this methodology) and continuously superfused with ND-96 buffer (consisting of 96 mM NaCl/2 mM KCl/1.8 mM CaCl2/1 mM MgCl2/5 mM HEPES, pH 7.5). For transport measurements, this solution was changed to a solution containing varying concentrations of the radiolabeled amino acids in ND-96 buffer.
(§3) More detailed analyses of ithe kinetics of amino acid influx were performed by least squares linear regression analysis of induced inward current ([I]) plotted as a function of substrate amino acid concentration ([S]), using the equation shown in the legend of Table II.

Substrate in data set [2]: N[C@@H](CO)C(=O)O
The description is as above. The format is cell-based, human.
Method: as §1, §2, §3

Substrate in data set [3]: CC(C)[C@H](N)C(=O)O
The data set is described as above. Format: cell-based, human.
Method: as §1, §2, §3

Substrate in data set [4]: C[C@H](N)C(=O)O
As to the kind of experiment: cells, lysate or membranes.

Substrate in data set [5]: C[C@@H](O)[C@H](N)C(=O)O
The data set can be described thus: cells, lysate or membranes.

B1: human ASCT1 neutral amino acid transporter (Homo sapiens) (protein)
chain: MEKSNETNGYLDSAQAGPAAGPGAPGTAAGRARRCAGFLRRQALVLLTVSGVLAGAGLGAALRGLSLSRTQVTYLAFPGEMLLRMLRMIILPLVVCSLVSGAASLDASCLGRLGGIAVAYFGLTTLSASALAVALAFIIKPGSGAQTLQSSDLGLEDSGPPPVPKETVDSFLDLARNLFPSNLVVAAFRTYATDYKVVTQNSSSGNVTHEKIPIGTEIEGMNILGLVLFALVLGVALKKLGSEGEDLIRFFNSLNEATMVLVSWIMWYVPVGIMFLVGSKIVEMKDIIVLVTSLGKYIFASILGHVIHGGIVLPLIYFVFTRKNPFRFLLGLLAPFATAFATCSSSATLPSMMKCIEENNGVDKRISRFILPIGATVNMDGAAIFQCVAAVFIAQLNNVELNAGQIFTILVTATASSVGAAGVPAGGVLTIAIILEAIGLPTHDLPLILAVDWIVDRTTTVVNVEGDALGAGILHHLNQKATKKGEQELAEVKVEAIPNCKSEEETSPLVTHQNPAGPVASAPELESKESVL
notes: expressed in transfected cells; host or cells: Xenopus laevis oocytes injected with in vitro transcribed RNA (pOTV vector)
As for B1, the Michaelis-Menten constant (Km) in data set [1] is 29 ± 6 µM; in data set [2], 88 ± 11 µM; in data set [3], 390 ± 8 µM; in data set [4], 71 ± 14 µM; in data set [5], 137 ± 19 µM.
